Measurements published in publication PMC3688593, “Cytokine Receptor-Like Factor 1 (CRLF1) Protects against 6-Hydroxydopamine Toxicity Independent of the gp130/JAK Signaling Pathway” (PLoS ONE, 2013).

Biological target: the molecule itself
Experiment: non-reducing versus reducing SDS-PAGE with immunoblot; proteins precipitated from conditioned media of stable SH-SY5Y lines; about 110 kDa band on non-reducing gels, 55 kDa CRLF1 band on reducing gels; blots for CRLF1 and CLCF1

B1: cytokine receptor-like factor 1 (CRLF1), full-length, untagged (natural protein, UniProt O75462 38-422, looked up)
chain: AHTAVISPQDPTLLIGSSLLATCSVHGDPPGATAEGLYWTLNGRRLPPELSRVLNASTLALALANLNGSRQRSGDNLVCHARDGSILAGSCLYVGLPPEKPVNISCWSKNMKDLTCRWTPGAHGETFLHTNYSLKYKLRWYGQDNTCEEYHTVGPHSCHIPKDLALFTPYEIWVEATNRLGSARSDVLTLDILDVVTTDPPPDVHVSRVGGLEDQLSVRWVSPPALKDFLFQAKYQIRYRVEDSVDWKVVDDVSNQTSCRLAGLKPGTVYFVQVRCNPFGIYGSKKAGIWSEWSHPTAASTPRSERPGPGGGACEPRGGEPSSGPVRRELKQFLGWLKKHAYCSNLSFRLYDQWRAWMQKSHKTRNQDEGILPSGRRGTARGPAR
notes: signal peptide in the construct; cytokine receptor-like factor 1 (CRLF1), untagged full-length open reading frame in pCDH-EF1-MCS-IRES-neo; detected in the conditioned medium as the secreted protein; The 110 kDa band is lost on reduction, so the dimer appears to be disulfide-linked; also called CRLF1-FL; FL
  stoichiometry N: 2
